Where a SMILES comes first, the peptide text is derived from it. Where no end group is shown, it is not given here. [ ]: non-standard residue; d: D form. NMeY = CN[C@@H](Cc1ccc(O)cc1)C(=O)O; NMeL = CN[C@@H](CC(C)C)C(=O)O
What was measured:
[1] = target: T1, HPV-16 E7 protein binding to the RBG protein (Homo sapiens, UniProt P06400); assay: HPV-16 E7 protein binding assay described by R.E. Jones et al.; conditions: lowest concentration stated to inhibit
T1 sequence (P06400 1-928): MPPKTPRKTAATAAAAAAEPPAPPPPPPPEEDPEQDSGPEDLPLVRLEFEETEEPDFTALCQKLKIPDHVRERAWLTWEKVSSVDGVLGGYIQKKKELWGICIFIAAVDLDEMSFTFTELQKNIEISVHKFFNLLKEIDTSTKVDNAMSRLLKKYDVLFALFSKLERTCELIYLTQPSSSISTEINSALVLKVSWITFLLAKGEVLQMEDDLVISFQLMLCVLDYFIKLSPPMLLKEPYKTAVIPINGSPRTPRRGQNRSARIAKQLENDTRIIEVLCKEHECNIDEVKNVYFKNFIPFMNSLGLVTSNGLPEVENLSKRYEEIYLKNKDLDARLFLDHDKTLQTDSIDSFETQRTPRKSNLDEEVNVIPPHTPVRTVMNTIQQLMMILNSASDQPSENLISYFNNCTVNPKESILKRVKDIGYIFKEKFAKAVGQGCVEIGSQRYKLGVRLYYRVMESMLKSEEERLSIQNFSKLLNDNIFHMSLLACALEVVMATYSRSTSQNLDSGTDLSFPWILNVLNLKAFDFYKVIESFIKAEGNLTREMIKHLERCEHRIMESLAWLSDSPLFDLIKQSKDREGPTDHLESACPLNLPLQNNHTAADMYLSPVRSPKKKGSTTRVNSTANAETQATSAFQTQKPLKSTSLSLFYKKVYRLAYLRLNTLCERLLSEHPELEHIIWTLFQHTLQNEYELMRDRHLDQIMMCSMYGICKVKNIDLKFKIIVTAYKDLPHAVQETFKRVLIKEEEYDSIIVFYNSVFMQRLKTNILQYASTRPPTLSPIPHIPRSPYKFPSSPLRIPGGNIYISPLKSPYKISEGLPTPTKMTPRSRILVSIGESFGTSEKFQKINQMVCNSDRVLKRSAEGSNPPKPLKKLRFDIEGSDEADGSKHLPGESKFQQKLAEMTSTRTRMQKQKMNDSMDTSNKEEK
Method: Peptides D and E were examined in the HPV-16 E7 protein binding assay described by R.E. Jones et al., The Journal of Biological Chemistry, Vol 265:12782-12785, 1990. This assay measures the binding of the E7 protein to the RBG protein. Peptides D and E inhibited HPV-16 E7 protein binding to the RBG protein at concentrations of Peptide D as low as 20nM and at concentrations of Peptide E as low as 2nM. […] Additionally, Peptide D and Peptide E are themselves antagonists of the HPV E7 protein binding to the RBG protein.

[2] = target: T1, HPV-16 E7 protein binding to the RBG protein; assay: Binding inhibition assay by immune precipitation (Example 2; Hela cell lysate plus radiolabeled E7 from rabbit reticulocyte lysate); set-up: Whole cell lysates of Hela cells were used as a source of human RBG protein; endogenous in cells; host or cells: HeLa whole cell lysate (RB); rabbit reticulocyte lysate, T7 promoter clone (E7)
Method: Peptide A, Peptide B, and Acetyl-GRP 20-27 were assayed for their abilities to inhibit the binding of the HPV-16 E7 protein to the RBG protein. Binding inhibition assays were carried out in vitro using a modification of the procedure described by N. Dyson et al., Science 243: 934-936 1989. Whole cell lysates of Hela cells were used as a source of human RBG protein. Rabbit reticulocyte cell free lysates that permit transcription and translation of exogenously added DNAs served as a source of HPV-16 E7 protein. The HPV-16 E7 gene was added to the rabbit reticulocyte lysate as a recombinant DNA clone under the control of a T7 promoter and incubated for 60 minutes at 30°C in the presence of radiolabeled methionine to allow transcription of the HPV-16 E7 gene and translation into E7 protein that contained radiolabeled methionine. The Hela cell and rabbit reticulocyte lysates were then mixed and incubated at 4°C for 90 minutes. After further manipulations a murine antibody against the RBG protein was added and incubated at 4°C for 60 minutes. Next, a rabbit anti-mouse IgG antibody and protein A sepharose was added to the reaction mixture in order to immune precipitate the RBG protein. At the same time, the E7 protein that was bound to the RBG protein was also precipitated. […] This biochemical protocol yields a quantitative estimate of the binding of HPV-16 E7 protein to the RBG protein in vitro. […]

RBG Protein/E7 = target: T2, RBG Protein/E7 (Homo sapiens, UniProt P06400); assay: E7/RB plate binding assay (recombinant E7 on plate, 35S-labeled RBG protein); conditions: average of at least two experiments, triplicate; read-out: PLATE ASSAY RBG Protein/E7 IC₅₀
T2 construct: made in house; host or cells: rabbit reticulocyte lysate (in vitro translation of RB)
T2 sequence (P06400 1-928): T1 sequence (P06400 1-928)
Method: (§1) An in vitro solution assay used for the detection of complex formation between E7 protein and p105-RB has been described by Dyson, et. al. (30). Cell lysates used as source of RBG protein were prepared from human T24 bladder carcinoma cells as described (30). C36 and the control antibody Pb416 are monoclonal antibodies directed against RGB protein and SV40 large T protein, respectively. These antibodies were a generous gift from E. Harlow (Cold Spring Harbor Laboratories, Cold Spring Harbor, NY). Immunoprecipitates of E7/RGB protein binding reactions containing serially diluted peptide antagonists were dissolved in 35 µl gel loasing buffer (30). Five µl was counted directly in Right Safe (Beckan, Palo Alto, CA.) scintillation cocktail and 25 µl was subjected to sodium dodecyl sulphate poly-acrylamide gel electrophoresis. Gels were dried and exposed to Kodak X-AR film at -70°C overnight. In order to more rapidly assay large numbers of samples and more easily quantitate the binding results, we developed a plate binding asszy for the detection of E7/RGB protein association. Purified recombinant E7 was resuspended in 0.1 M sodium carbonate, pH 9.5, at 1 ng/µl. Fifty microliters of this solution was placed inot each well of a polyvinyl chloride micortiter plate (COSTAR 2596, Cambridge, MA.). The plate was gently agitated for 18 hours at 4°C. The E7 solution was aspirated off and 100 µl of plate blocking buffer (PBB) [50mM Hepes 7.0, 250mM sodium chloride, 0.1% NP40, 0.5% (w/v) pigskin gelatin, and 0.02% sodium azide] was added pwe well. The buffer was removed and the plate was washed three times in the above buffer without the gelatin (PB). five femtomoles of ³⁵S-methionine (Amersham 100 Ci/mmole, Arlington Heights, IL.) labeled RBG protein prepared in a rabbit reticulocyte lysate was diluted in PB buffer containing various peptide antagonists to a final volume of 50 µl and added to the E7 treated plate. The plate was agsin incubated at 4°C with agitation for 1 hour after which the solution was aspirated and each well washed five times with PB. The top of the plate was removed using a hot wire cutting apparatus (D. Lee, Sunnyvale, CA). Each well eas placed in 3 ml of Ready Safe scintillation cocktail (Beckman, Palo Alto, CA.) and counted for one minute. • 30. Dyson, N. Duffy, L.A., and Harlow, E. (1989) Cancer Cells 7, 235-240 • 31. Merrifield, R.B. (1963) J. Am. Chem. Soc. 85, 2149-2154 • 32. Sakakibara, S., Shimonishi, Y., Kishida, Y., Okada, M., and Sugihara, H. (1967) Bull. Chem. Soc. Japan 40, 2164-2167 • 33. Rivier, J., McClentock, R., and Anderson, H. (1984) J. Chromatogr. 288, 303-328
(§2) IC ₅₀ values represent the average of at least two experiments in which each concentration of inhibitor was tested in triplicate. The varition between experiments was less than 10%. The 50% inhibition concentration are micromolar. ND = not determined. [formula] [formula] [formula] [formula]

[3] = target: T3, RBG Protein/E7 (complex formation between E7 protein and p105-RB) (Homo sapiens, UniProt P06400); assay: E7/RB solution assay (immunoprecipitation, T24 cell lysates as source of RBG protein); assay type: binding; conditions: average of at least two experiments, triplicate; read-out: SOLUTION ASSAY RBG Protein/E7 IC₅₀
T3 construct: Cell lysates used as source of RBG protein were prepared from human T24 bladder carcinoma cells; endogenous in cells; host or cells: human T24 bladder carcinoma cells (whole cell lysate)
T3 sequence (P06400 1-928): T1 sequence (P06400 1-928)
Method: as §1, §2

Compound | IC50 (RBG Protein/E7) | IC50 [3] | also measured
CC(=O)N[C@@H](CC(=O)O)C(=O)N(C)[C@@H](CC(C)C)C(=O)N[C@@H](Cc1ccc(O)cc1)C(=O)N[C@@H](CS)C(=O)N(C)[C@@H](Cc1ccc(O)cc1)C(=O)N[C@@H](CCC(=O)O)C(=O)N[C@@H](CCC(N)=O)C(=O)N(C)[C@@H](CC(C)C)C(=O)N[C@@H](CC(N)=O)C(N)=O [Peptide E] (Ac-D[NMeL]YC[NMeY]EQ[NMeL]N-NH2) |  |  | inhibited HPV-16 E7 protein binding to the RBG protein at concentrations as low as [1]: 2 nM
Ac-DLYCYEQLN-NH2 [Peptide D] |  |  | inhibited HPV-16 E7 protein binding to the RBG protein at concentrations as low as [1]: 20 nM
Ac-LYCYEQLNDSS-NH2 [Peptide C] |  |  | inhibited HPV-16 E7 protein binding to the RBG protein at concentrations as low as ([2]; lowest concentration stated to inhibit): 1 µM
Acetyl-GRP 20-27: last eight amino acid residues of the human gastrin releasing peptide, unrelated to the HPV E7 protein |  |  | effect on HPV-16 E7 protein binding to the RBG protein ([2]; concentrations up to 60 uM): no effect
E7-(14-29)-AMIDE (DLQPETTDLYCYEQLN-NH2; UniProt P03129 14-29, looked up, fragment) [Peptide 7] | 0.08 µM |  | 
E7-(18-29)-AMIDE (ETTDLYCYEQLN-NH2; UniProt P03129 18-29, looked up, fragment) [Peptide 8] | 0.06 µM | 0.4 µM | 
E7-(20-32)-AMIDE (TDLYCYEQLNDSS-NH2; UniProt P03129 20-32, looked up, fragment) [Peptide 1] | 0.05 µM | 1 µM | 
E7-(21)32)-AMIDE (DLYCYEQLNDSS-NH2; UniProt P03129 21-32, looked up, fragment) [Peptide 10] | 11.4 µM | 20 µM | 
TDLFCYEQLN-NH2 [Peptide 19, [Phe²³]-E7-(20-29)-AMIDE] | 0.06 µM |  | 
[ABU²⁴]-E7-(20-32)-AMIDE [Peptide 17] |  | 20 µM | 
[ACM²⁴]-E7-(20-32)-AMIDE [Peptide 18] |  | > 100 µM | 
[G1n27]]-E7-(20-27)-AMIDE (TDLYCYEQ-NH2; UniProt P03129 20-27, looked up, fragment) [Peptide 5] | 9.1 µM | 50 µM | 
[Ser²⁴]-E7-(20-32)-AMIDE (TDLYSYEQLNDSS-NH2; UniProt P03129 20-32, looked up, variant C24S) [Peptide 16] |  | 40 µM | 

From patent publication EP0531080A2, “Peptide inhibitors of human papilloma virus protein binding to retinoblastoma gene protein” (MERCK & CO. INC., priority 1991, dated 1993)
